± gives the uncertainty stated by the source.
B1: Cytoplasmic polyadenylation element-binding protein 2, residues 513 to 575; numbered along this chain, Q7Z5Q1 (parent)
chain: KRVEVKPYVLDDQMCDECQGARCGGKFAPFFCANVTCLQYYCEFCWANIHSRAGREFHKPLVK

Variants of: B1
Assay: abundance fitness (aPCA) (normalised: wild type 0, dead -1); higher = more abundant; growth selection in yeast, the domain comes from the species named
Conditions: Homo sapiens

Variant | abundance fitness
G20S | -0.363 ± 0.053
G20H | -0.509 ± 0.086
G20C | -0.503 ± 0.07
G20L | -0.944 ± 0.076
G20I | -0.841 ± 0.15
G20T | -0.571 ± 0.072
Y8I | -0.026 ± 0.07
Y8P | 0.075 ± 0.047
Y8M | -0.365 ± 0.087
Y8V | -0.086 ± 0.044
Y8G | 0.154 ± 0.042
Y8A | 0.01 ± 0.04
C32G | -0.802 ± 0.08
C32H | -0.917 ± 0.15
C32M | -0.793 ± 0.074
C32E | -0.683 ± 0.056
C23T | -0.095 ± 0.053
C23R | -0.185 ± 0.035
C23W | -0.424 ± 0.061
C23Y | -0.38 ± 0.068
C23Q | -0.24 ± 0.075
C23A | -0.154 ± 0.066
C23L | -0.285 ± 0.041
C23F | -0.409 ± 0.07

Variant | abundance fitness
C18I | -1.05 ± 0.23
C18W | -1.07 ± 0.11
E17T | -0.22 ± 0.062
E17V | -0.061 ± 0.039
E17L | -0.117 ± 0.043
L38M | 0.123 ± 0.064
L38H | 0.029 ± 0.098
L38I | -0.115 ± 0.072
L38T | -0.072 ± 0.059
Q13P | -0.211 ± 0.049
Q13F | -0.229 ± 0.073
Q13H | -0.087 ± 0.084
Q13T | -0.087 ± 0.045
Q13W | -0.372 ± 0.055
Q13M | -0.056 ± 0.049
Q13C | -0.146 ± 0.063
Q13N | -0.131 ± 0.086
P29S | 0.009 ± 0.038
P29E | -0.108 ± 0.061
P29C | -0.147 ± 0.052
V35F | -0.115 ± 0.06
V35P | 0.116 ± 0.053
V35Q | 0.021 ± 0.053
V35E | 0.063 ± 0.062

Variant | abundance fitness
V35M | -0.334 ± 0.09
V35D | -0.091 ± 0.13
V35N | 0.108 ± 0.078
V35W | -0.29 ± 0.053
G54S | -0.009 ± 0.043
G54V | -0.32 ± 0.039
G54N | 0.108 ± 0.11
G54M | -0.299 ± 0.07
G54H | -0.123 ± 0.094
Y41A | -0.676 ± 0.072
Y41N | -0.898 ± 0.3
Y41G | -0.878 ± 0.072
Y41K | -0.625 ± 0.1
G24S | -0.046 ± 0.044
G24E | 0.018 ± 0.053
G24C | -0.242 ± 0.06
G24Y | -0.088 ± 0.071
G24K | -0.068 ± 0.049
F57G | 0.166 ± 0.035
F57S | 0.129 ± 0.049
F57A | 0.125 ± 0.049
R55V | -0.1 ± 0.046
R55M | 0.031 ± 0.049
R55Q | -0.058 ± 0.073

Variant | abundance fitness
R55L | 0.04 ± 0.035
R55N | -0.019 ± 0.079
R55D | -0.08 ± 0.06
R55S | -0.041 ± 0.037
W46R | -0.571 ± 0.07
W46A | -0.503 ± 0.06
W46Q | -0.624 ± 0.14
W46L | -0.335 ± 0.052
W46T | -0.558 ± 0.052
W46P | -0.624 ± 0.09
W46C | -0.401 ± 0.084
K6P | -0.102 ± 0.046
K6R | -0.128 ± 0.034
K6E | -0.069 ± 0.048
K6Q | -0.083 ± 0.044
K6H | -0.225 ± 0.06
K6V | -0.104 ± 0.034
K6G | -0.017 ± 0.033
K26W | -0.509 ± 0.064
K26E | -0.091 ± 0.053
K26R | -0.027 ± 0.035
K26T | -0.073 ± 0.059
K26G | -0.082 ± 0.046
V62M | 0.081 ± 0.22

Variant | abundance fitness
V5Q | 0.077 ± 0.068
V5R | 0.005 ± 0.041
V5E | 0.144 ± 0.064
V5W | -0.247 ± 0.052
A53Q | 0.106 ± 0.058
A53N | 0.152 ± 0.086
A53I | -0.079 ± 0.076
A53S | 0.053 ± 0.031
D16P | -0.129 ± 0.053
D16N | 0.253 ± 0.088
D16T | 0.115 ± 0.043
D16E | 0.047 ± 0.06
D16H | 0.076 ± 0.094
D16M | -0.089 ± 0.059
D16S | 0.193 ± 0.036
P7V | -0.735 ± 0.083
P7M | -0.259 ± 0.064
P7Q | -0.098 ± 0.062
P7K | 0.046 ± 0.072
P7I | -1.07 ± 0.32
P7W | -0.622 ± 0.058
Y40T | -0.315 ± 0.068
Y40H | -0.092 ± 0.066
Y40M | -0.231 ± 0.055

Variant | abundance fitness
Y40I | -0.512 ± 0.096
Y40W | -0.059 ± 0.056
Y40Q | -0.184 ± 0.09
D11S | -0.125 ± 0.05
D11E | 0.084 ± 0.05
D11N | -0.028 ± 0.05
D11T | -0.239 ± 0.063
S51Q | 0.102 ± 0.06
S51V | -0.025 ± 0.039
S51P | -0.118 ± 0.053
S51D | 0.174 ± 0.056
D12P | -0.107 ± 0.055
D12N | -0.019 ± 0.049
D12G | -0.066 ± 0.051
D12V | -0.221 ± 0.058
D12W | -0.225 ± 0.05
D12H | 0.049 ± 0.056
E43M | -0.309 ± 0.05
E43V | -0.235 ± 0.056
E43Q | -0.11 ± 0.057
E43N | -0.05 ± 0.071
E43C | -0.25 ± 0.051
C45R | -1.05 ± 0.066
C45Q | -0.994 ± 0.14

Variant | abundance fitness
C45A | -0.77 ± 0.078
V9N | 0.007 ± 0.12
V9G | -0.087 ± 0.037
V9L | -0.043 ± 0.04
V9C | -0.002 ± 0.071
V9M | 0.049 ± 0.034
A33M | -0.18 ± 0.047
A33S | 0.061 ± 0.036
A33R | -0.124 ± 0.041
A33G | -0.047 ± 0.035
A33W | -0.28 ± 0.042
A33V | -0.124 ± 0.044
F44T | 0.003 ± 0.048
F44E | 0.033 ± 0.048
F44Q | 0.124 ± 0.061
F44C | 0.053 ± 0.063
K1D | -0.01 ± 0.066
K1F | -0.292 ± 0.11
K1R | -0.216 ± 0.052
K1E | 0.038 ± 0.063
K1N | 0.143 ± 0.078
A21L | -0.203 ± 0.04
A21M | -0.22 ± 0.081

From the Human Domainome abundance scans (Beltran et al. 2025)
